Results on 3 molecules are retold here after patent WO2025026282A1 (dated 2025).

Experiment [1] concerns the target T1, Human PD-L1 (human, UniProt Q9NZQ7 19-238, limits assumed).
T1 construct: Diluted to 2 ug/ml in KB buffer for BLI; construct not described
The experiment in a line: BLI (Octet R8), human PD-L1.

For experiment [2], the target named is T2, human CD3 epsilon (human, UniProt P07766 23-126, limits assumed).
T2 construct: the same molecule is used here for both
The experiment is described as follows: SPR (Biacore), antigen captured, antibody as analyte.

T2 sequence (P07766 23-126 limits assumed): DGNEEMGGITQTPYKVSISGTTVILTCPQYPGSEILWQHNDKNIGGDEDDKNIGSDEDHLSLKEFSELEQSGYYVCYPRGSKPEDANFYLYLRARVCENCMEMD
T1 sequence (Q9NZQ7 19-238 limits assumed): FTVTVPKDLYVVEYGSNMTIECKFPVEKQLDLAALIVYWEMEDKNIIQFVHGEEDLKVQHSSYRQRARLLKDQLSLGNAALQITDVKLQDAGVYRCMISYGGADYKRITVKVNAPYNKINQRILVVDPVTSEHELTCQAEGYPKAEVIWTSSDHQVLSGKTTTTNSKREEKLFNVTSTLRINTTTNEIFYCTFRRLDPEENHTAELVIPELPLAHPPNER

B1: 12A69 (other)
chain 1: QAVVTQEPSLTVSPGGTVTLTCRSSTGAVTTSNYANWVQQKPGQAPRGLIGGTNKRAPWTPARFSGSLLGGKAALTLSGAQAEDEADYYCALWYSNLWVFGGGTKLTVLRTVAAQVQLVQSGAEVKKPGSSVKVSCKTSGDTFSSYAISWVRDAPGQCLEWMGGIIPIFGKAHYAQKFQGRVTITADESTSTAYMELSSLRSEDTAVYFCARKFHFVSGSPFGMDVWGQGTTVTVSSASEPKSSDKTHTCPPCPAPPVAGPSVFLFPPKPKDTLMISRTPEVTCVVVDVSQEDPEVKFNWYVDGVEVHNAKTKPREEQFNSTYRVVSVLTVLHQDWLNGKEYKCKVSNKGLPSSIEKTISKAKGQPREPQVYTLPPSRDELTKNQVSLWCLVKGFYPSDIAVEWESNGQPENNYKTTPPVLDSDGSFFLYSKLTVDKSRWQQGNVFSCSVMHEALHNHYTQKSLSLSP
chain 2: EVQLVESGGGLVQPGGSLRLSCAASGFTFTDYYMNWVRQAPGKALEWLGFIRNKVNGDTTEYAASVKGRFTISRDDSKNSLYLQMNSLKTEDTAVYYCARDKGIAYYFDYWGQGTLVTVSSASTKGPSVFPLAPSSKSTSGGTAALGCLVKDYFPEPVTVSWNSGALTSGVHTFPAVLQSSGLYSLSSVVTVPSSSLGTQTYICNVNHKPSNTKVDKKVEPKSCDGGGGSGGGGSEIVLTQSPATLSLSPGERATLSCRASQSVSSYLAWYQKKPGQAPRLLIYDASNRATGIPARFSGSGSGTDFTLTISSLEPEDFAVYYCQQRSNAPTFGCGTKVEIKRTVAAEVQLVESGGGLVQPGGSLRLSCAASGFTFSTYAMNWVRQAPGKGLEWVGRIRSKYNNYATYYADSVKGRFTISRDDSKNSLYLQMNSLRAEDTAVYYCVRHGNFGTSYVSWFAYWGQGTLVTVSS
chain 3: EVQLVESGGGLVQPGGSLRLSCAASGFTFTDYYMNWVRQAPGKALEWLGFIRNKVNGDTTEYAASVKGRFTISRDDSKNSLYLQMNSLKTEDTAVYYCARDKGIAYYFDYWGQGTLVTVSSASTKGPSVFPLAPSSKSTSGGTAALGCLVKDYFPEPVTVSWNSGALTSGVHTFPAVLQSSGLYSLSSVVTVPSSSLGTQTYICNVNHKPSNTKVDKKVEPKSCDKTHTCPPCPAPPVAGPSVFLFPPKPKDTLMISRTPEVTCVVVDVSQEDPEVKFNWYVDGVEVHNAKTKPREEQFNSTYRVVSVLTVLHQDWLNGKEYKCKVSNKGLPSSIEKTISKAKGQPREPQVYTLPPSRDELTKNQVSLSCAVKGFYPSDIAVEWESNGQPENNYKTTPPVLDSDGSFFLVSKLTVDKSRWQQGNVFSCSVMHEALHNRFTQKSLSLSP
chain 4: EIVLTQSPATLSASPGERATLSCRASQSVSYIHWYQQKPGQSPRPWIHGTSNLATGVPARFSGSGSGTDFTLTISSLEPEDAAVYYCQQWSSNLSTFGGGTKVEIKRTVAAPSVFIFPPSDEQLKSGTASVVCLLNNFYPREAKVQWKVDNALQSGNSQESVTEQDSKDSTYSLSSTLTLSKADYEKHKVYACEVTHQGLSSPVTKSFNRGEC
Turning to B1, in experiment [1], the Kd was 72.8 nM.

B2: 12A44 (other)
chain 1: QAVVTQEPSLTVSPGGTVTLTCRSSTGAVTTSNYANWVQQKPGQAPRGLIGGTNKRAPWTPARFSGSLLGGKAALTLSGAQAEDEADYYCALWYSNLWVFGGGTKLTVLRTVAAQVQLVQSGAEVKKPGSSVKVSCKTSGDTFSSYAISWVRDAPGQCLEWMGGIIPIFGKAHYAQKFQGRVTITADESTSTAYMELSSLRSEDTAVYFCARKFHFVSGSPFGMDVWGQGTTVTVSSASEPKSSDKTHTCPPCPAPPVAGPSVFLFPPKPKDTLMISRTPEVTCVVVDVSQEDPEVKFNWYVDGVEVHNAKTKPREEQFNSTYRVVSVLTVLHQDWLNGKEYKCKVSNKGLPSSIEKTISKAKGQPREPQVYTLPPSRDELTKNQVSLWCLVKGFYPSDIAVEWESNGQPENNYKTTPPVLDSDGSFFLYSKLTVDKSRWQQGNVFSCSVMHEALHNHYTQKSLSLSP
chain 2: EVQLVESGGGLVQPGGSLRLSCAASGFTFTDYYMNWVRQAPGKALEWLGFIRNKVNGDTTEYAASVKGRFTISRDDSKNSLYLQMNSLKTEDTAVYYCARDKGIAYYFDYWGQGTLVTVSSASTKGPSVFPLAPSSKSTSGGTAALGCLVKDYFPEPVTVSWNSGALTSGVHTFPAVLQSSGLYSLSSVVTVPSSSLGTQTYICNVNHKPSNTKVDKKVEPKSCDGGGGSGGGGSEIVLTQSPATLSLSPGERATLSCRASQSVSSYLAWYQKKPGQAPRLLIYDASNRATGIPARFSGSGSGTDFTLTISSLEPEDFAVYYCQQRSNWPTFGCGTKVEIKRTVAAEVQLVESGGGLVQPGGSLRLSCAASGFTFSTYAMNWVRQAPGKGLEWVGRIRSQYNNYATYYADSVKGRFTISRDDSKNSLYLQMNSLRAEDTAVYYCVRHGNFGTSYVSWFAYWGQGTLVTVSS
chain 3: EVQLVESGGGLVQPGGSLRLSCAASGFTFTDYYMNWVRQAPGKALEWLGFIRNKVNGDTTEYAASVKGRFTISRDDSKNSLYLQMNSLKTEDTAVYYCARDKGIAYYFDYWGQGTLVTVSSASTKGPSVFPLAPSSKSTSGGTAALGCLVKDYFPEPVTVSWNSGALTSGVHTFPAVLQSSGLYSLSSVVTVPSSSLGTQTYICNVNHKPSNTKVDKKVEPKSCDKTHTCPPCPAPPVAGPSVFLFPPKPKDTLMISRTPEVTCVVVDVSQEDPEVKFNWYVDGVEVHNAKTKPREEQFNSTYRVVSVLTVLHQDWLNGKEYKCKVSNKGLPSSIEKTISKAKGQPREPQVYTLPPSRDELTKNQVSLSCAVKGFYPSDIAVEWESNGQPENNYKTTPPVLDSDGSFFLVSKLTVDKSRWQQGNVFSCSVMHEALHNRFTQKSLSLSP
chain 4: EIVLTQSPATLSASPGERATLSCRASQSVSYIHWYQQKPGQSPRPWIHGTSNLATGVPARFSGSGSGTDFTLTISSLEPEDAAVYYCQQWSSNLSTFGGGTKVEIKRTVAAPSVFIFPPSDEQLKSGTASVVCLLNNFYPREAKVQWKVDNALQSGNSQESVTEQDSKDSTYSLSSTLTLSKADYEKHKVYACEVTHQGLSSPVTKSFNRGEC
Turning to B2, binding in experiment [2] was characterised by a dissociation constant (Kd) of 118 nM.

B3: 12A46 (other)
chain 1: QAVVTQEPSLTVSPGGTVTLTCRSSTGAVTTSNYANWVQQKPGQAPRGLIGGTNKRAPWTPARFSGSLLGGKAALTLSGAQAEDEADYYCALWYSNLWVFGGGTKLTVLRTVAAQVQLVQSGAEVKKPGSSVKVSCKTSGDTFSSYAISWVRDAPGQCLEWMGGIIPIFGKAHYAQKFQGRVTITADESTSTAYMELSSLRSEDTAVYFCARKFHFVSGSPFGMDVWGQGTTVTVSSASEPKSSDKTHTCPPCPAPPVAGPSVFLFPPKPKDTLMISRTPEVTCVVVDVSQEDPEVKFNWYVDGVEVHNAKTKPREEQFNSTYRVVSVLTVLHQDWLNGKEYKCKVSNKGLPSSIEKTISKAKGQPREPQVYTLPPSRDELTKNQVSLWCLVKGFYPSDIAVEWESNGQPENNYKTTPPVLDSDGSFFLYSKLTVDKSRWQQGNVFSCSVMHEALHNHYTQKSLSLSP
chain 2: EVQLVESGGGLVQPGGSLRLSCAASGFTFTDYYMNWVRQAPGKALEWLGFIRNKVNGDTTEYAASVKGRFTISRDDSKNSLYLQMNSLKTEDTAVYYCARDKGIAYYFDYWGQGTLVTVSSASTKGPSVFPLAPSSKSTSGGTAALGCLVKDYFPEPVTVSWNSGALTSGVHTFPAVLQSSGLYSLSSVVTVPSSSLGTQTYICNVNHKPSNTKVDKKVEPKSCDGGGGSGGGGSEIVLTQSPATLSLSPGERATLSCRASQSVSSYLAWYQKKPGQAPRLLIYDASNRATGIPARFSGSGSGTDFTLTISSLEPEDFAVYYCQQRSNWPTFGCGTKVEIKRTVAAEVQLVESGGGLVQPGGSLRLSCAASGFTFSTYAMNWVRQAPGKGLEWVGRIRSKYNNYATYYADSVKGRFTISRDDSKNSLYLQMNSLRAEDTAVYYCVRHGNFGTSYASWFAYWGQGTLVTVSS
heavy: EVQLVESGGGLVQPGGSLRLSCAASGFTFTDYYMNWVRQAPGKALEWLGFIRNKVNGDTTEYAASVKGRFTISRDDSKNSLYLQMNSLKTEDTAVYYCARDKGIAYYFDYWGQGTLVTVSSASTKGPSVFPLAPSSKSTSGGTAALGCLVKDYFPEPVTVSWNSGALTSGVHTFPAVLQSSGLYSLSSVVTVPSSSLGTQTYICNVNHKPSNTKVDKKVEPKSCDKTHTCPPCPAPPVAGPSVFLFPPKPKDTLMISRTPEVTCVVVDVSQEDPEVKFNWYVDGVEVHNAKTKPREEQFNSTYRVVSVLTVLHQDWLNGKEYKCKVSNKGLPSSIEKTISKAKGQPREPQVYTLPPSRDELTKNQVSLSCAVKGFYPSDIAVEWESNGQPENNYKTTPPVLDSDGSFFLVSKLTVDKSRWQQGNVFSCSVMHEALHNRFTQKSLSLSP
light: EIVLTQSPATLSASPGERATLSCRASQSVSYIHWYQQKPGQSPRPWIHGTSNLATGVPARFSGSGSGTDFTLTISSLEPEDAAVYYCQQWSSNLSTFGGGTKVEIKRTVAAPSVFIFPPSDEQLKSGTASVVCLLNNFYPREAKVQWKVDNALQSGNSQESVTEQDSKDSTYSLSSTLTLSKADYEKHKVYACEVTHQGLSSPVTKSFNRGEC
notes: Kabat position; choice of chain inferred; also called V100C A (12A46)
On to B3, for which binding in experiment [2] was characterised by a dissociation constant (Kd) of 176 nM.
